Experiment [1] addresses rat XCL1 (rat) (UniProt P51672). In words: flow cytometry, 293T cells with 1 ug/mL chemokine and 100 nM isotype control antibody, anti-human-Fc/PE.
For experiment [2], the target named is human XCL2 (human) (UniProt Q9UBD3). The experiment is described as above.
For experiment [3], the target named is cynomolgus (cyno) XCL1 (cynomolgus). Described as above.
Experiment [4] addresses mouse XCL1 (mouse) (UniProt P47993). The experiment is described as above.
Experiment [5] deals with human XCL1 (human) (UniProt P47992). Described as above.
The target of experiment [6] is T1, human XCR1 (human, UniProt P46094 1-333).
T1 sequence (looked up): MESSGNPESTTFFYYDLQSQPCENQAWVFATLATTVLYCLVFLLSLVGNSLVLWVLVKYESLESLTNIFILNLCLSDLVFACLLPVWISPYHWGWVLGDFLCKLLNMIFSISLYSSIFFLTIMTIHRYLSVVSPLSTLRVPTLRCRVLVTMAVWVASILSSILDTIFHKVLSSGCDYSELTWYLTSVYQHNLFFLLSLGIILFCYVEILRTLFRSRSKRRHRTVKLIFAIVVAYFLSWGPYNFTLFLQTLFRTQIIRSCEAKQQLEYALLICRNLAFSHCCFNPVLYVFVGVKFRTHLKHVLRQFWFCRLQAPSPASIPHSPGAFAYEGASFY
Briefly: cell-based or functional assay.

Sequence of rat XCL1 (rat) (P51672 22-114 limits assumed): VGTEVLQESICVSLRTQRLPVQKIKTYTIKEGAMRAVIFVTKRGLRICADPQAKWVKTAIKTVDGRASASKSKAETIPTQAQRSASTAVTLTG
Sequence of mouse XCL1 (mouse) (P47993 22-114 limits assumed): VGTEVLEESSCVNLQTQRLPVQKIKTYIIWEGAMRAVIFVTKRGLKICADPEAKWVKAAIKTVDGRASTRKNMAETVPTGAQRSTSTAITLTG

Consider hIgG1-AAS isotype control antibody, for which the MFI in experiment [1] is 8.2 MFI; in experiment [2] it was 8.6 MFI; in experiment [3], 8.4 MFI; in experiment [4] it was 8 MFI; in experiment [5], 7.6 MFI.

B1: human XCL1 (ligand)
chain: VGSEVSDKRTCVSLTTQRLPVSRIKTYTITEGSLRAVIFITKRGLKVCADPQATWVRDVVRSMDRKSNTRNNMIQTKPTGTQQSTNTAVTLTG
Take B1: the “GeoMean EC50 (nM), migration of XCR1-expressing Ba/F3 cells (Boyden chamber)” value in experiment [6] was 858 nM.

B2: Human XCL1 CC3 (ligand)
chain: VGSEVSDKRTCVSLTTQRLPCSRIKTYTITEGSLRAVIFITKRGLKVCADPQATWVRDCVRSMDRKSNTRNNMIQTKPTGTQQSTNTAVTLTG
Turning to B2, the “GeoMean EC50 (nM), migration of XCR1-expressing Ba/F3 cells (Boyden chamber)” value in experiment [6] came out at 115 nM.

Source of the values: patent US20240391992A1 (Eli Lilly, published 2024).
